{"source": "patent US20220195061A1", "about": "(Novartis, published 2022)", "target": "human CD40 on cells (human, UniProt P25942 21-277)", "sequence (P25942 21-277 limits assumed)": "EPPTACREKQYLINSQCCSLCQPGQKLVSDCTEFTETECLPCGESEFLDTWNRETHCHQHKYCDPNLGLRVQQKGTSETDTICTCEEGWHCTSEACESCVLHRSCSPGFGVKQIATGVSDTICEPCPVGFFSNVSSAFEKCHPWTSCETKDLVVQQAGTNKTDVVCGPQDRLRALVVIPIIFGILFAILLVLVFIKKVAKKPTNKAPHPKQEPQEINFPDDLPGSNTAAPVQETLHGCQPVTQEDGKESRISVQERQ", "assay": "cell-based or functional assay"}
{"binder": "CFZ533 (antibody, human IgG1, kappa, N297A) heavy: not shown light: DIVMTQSPLSLTVTPGEPASISCRSSQSLLYSNGYNYLDWYLQKPGQSPQVLISLGSNRASGVPDRFSGSGSGTDFTLKISRVEAEDVGVYYCMQARQTPFTFGPGTKVDIRRTVAAPSVFIFPPSDEQLKSGTASVVCLLNNFYPREAKVQWKVDNALQSGNSQESVTEQDSKDSTYSLSSTLTLSKADYEKHKVYACEVTHQGLSSPVTKSFNRGEC", "values": [{"measurement": "IC50 (read off the curve), rCD154-induced CD69 expression on CD20pos B cells", "value": "~0.1", "unit": "µg/mL"}]}
